Data from patent US20140274782A1, “AFFINITY REAGENTS AND METHODS FOR DETECTION, PURIFICATION, AND PROTEOMIC ANALYSIS OF METHYLATED PROTEINS” (The Board of Trustees of the Leland Stanford Junior …, priority 2013, published 2014).

T1: G9a and GLP (Homo sapiens, UniProt Q96KQ7+Q9H9B1)
T1 sequence (Q96KQ7 2-1210 limits assumed): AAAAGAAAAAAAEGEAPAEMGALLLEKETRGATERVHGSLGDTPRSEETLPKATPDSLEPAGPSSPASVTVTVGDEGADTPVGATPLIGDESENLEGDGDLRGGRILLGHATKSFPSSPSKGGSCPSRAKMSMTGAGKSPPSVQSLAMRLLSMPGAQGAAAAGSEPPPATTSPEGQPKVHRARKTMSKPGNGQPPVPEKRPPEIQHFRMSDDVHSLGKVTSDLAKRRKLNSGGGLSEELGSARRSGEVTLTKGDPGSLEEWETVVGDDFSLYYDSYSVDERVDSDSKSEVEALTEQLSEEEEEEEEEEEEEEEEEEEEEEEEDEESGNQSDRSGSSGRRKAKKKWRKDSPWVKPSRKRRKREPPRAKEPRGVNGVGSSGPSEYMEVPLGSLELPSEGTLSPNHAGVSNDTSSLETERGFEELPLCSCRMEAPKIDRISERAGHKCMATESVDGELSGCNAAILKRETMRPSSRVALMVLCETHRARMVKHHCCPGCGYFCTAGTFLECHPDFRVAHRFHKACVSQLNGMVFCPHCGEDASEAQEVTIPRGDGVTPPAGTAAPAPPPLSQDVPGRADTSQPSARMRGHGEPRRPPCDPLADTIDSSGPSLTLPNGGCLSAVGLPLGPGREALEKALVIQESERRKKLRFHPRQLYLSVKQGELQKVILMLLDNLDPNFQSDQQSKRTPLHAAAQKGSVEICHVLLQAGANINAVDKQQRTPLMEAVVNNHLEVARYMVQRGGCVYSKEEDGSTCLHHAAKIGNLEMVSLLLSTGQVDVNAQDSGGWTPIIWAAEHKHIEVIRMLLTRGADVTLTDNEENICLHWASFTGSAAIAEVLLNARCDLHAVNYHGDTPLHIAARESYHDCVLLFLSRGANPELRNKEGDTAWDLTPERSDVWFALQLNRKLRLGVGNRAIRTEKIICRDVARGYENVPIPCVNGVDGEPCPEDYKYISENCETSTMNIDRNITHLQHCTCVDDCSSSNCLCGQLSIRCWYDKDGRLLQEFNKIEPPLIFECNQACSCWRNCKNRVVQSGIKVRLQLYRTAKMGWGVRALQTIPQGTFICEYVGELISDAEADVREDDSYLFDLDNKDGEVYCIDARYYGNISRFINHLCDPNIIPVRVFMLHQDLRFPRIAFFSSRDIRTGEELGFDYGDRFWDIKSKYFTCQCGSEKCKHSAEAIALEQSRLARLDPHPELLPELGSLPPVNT
T1 sequence (Q9H9B1 2-1298 limits assumed): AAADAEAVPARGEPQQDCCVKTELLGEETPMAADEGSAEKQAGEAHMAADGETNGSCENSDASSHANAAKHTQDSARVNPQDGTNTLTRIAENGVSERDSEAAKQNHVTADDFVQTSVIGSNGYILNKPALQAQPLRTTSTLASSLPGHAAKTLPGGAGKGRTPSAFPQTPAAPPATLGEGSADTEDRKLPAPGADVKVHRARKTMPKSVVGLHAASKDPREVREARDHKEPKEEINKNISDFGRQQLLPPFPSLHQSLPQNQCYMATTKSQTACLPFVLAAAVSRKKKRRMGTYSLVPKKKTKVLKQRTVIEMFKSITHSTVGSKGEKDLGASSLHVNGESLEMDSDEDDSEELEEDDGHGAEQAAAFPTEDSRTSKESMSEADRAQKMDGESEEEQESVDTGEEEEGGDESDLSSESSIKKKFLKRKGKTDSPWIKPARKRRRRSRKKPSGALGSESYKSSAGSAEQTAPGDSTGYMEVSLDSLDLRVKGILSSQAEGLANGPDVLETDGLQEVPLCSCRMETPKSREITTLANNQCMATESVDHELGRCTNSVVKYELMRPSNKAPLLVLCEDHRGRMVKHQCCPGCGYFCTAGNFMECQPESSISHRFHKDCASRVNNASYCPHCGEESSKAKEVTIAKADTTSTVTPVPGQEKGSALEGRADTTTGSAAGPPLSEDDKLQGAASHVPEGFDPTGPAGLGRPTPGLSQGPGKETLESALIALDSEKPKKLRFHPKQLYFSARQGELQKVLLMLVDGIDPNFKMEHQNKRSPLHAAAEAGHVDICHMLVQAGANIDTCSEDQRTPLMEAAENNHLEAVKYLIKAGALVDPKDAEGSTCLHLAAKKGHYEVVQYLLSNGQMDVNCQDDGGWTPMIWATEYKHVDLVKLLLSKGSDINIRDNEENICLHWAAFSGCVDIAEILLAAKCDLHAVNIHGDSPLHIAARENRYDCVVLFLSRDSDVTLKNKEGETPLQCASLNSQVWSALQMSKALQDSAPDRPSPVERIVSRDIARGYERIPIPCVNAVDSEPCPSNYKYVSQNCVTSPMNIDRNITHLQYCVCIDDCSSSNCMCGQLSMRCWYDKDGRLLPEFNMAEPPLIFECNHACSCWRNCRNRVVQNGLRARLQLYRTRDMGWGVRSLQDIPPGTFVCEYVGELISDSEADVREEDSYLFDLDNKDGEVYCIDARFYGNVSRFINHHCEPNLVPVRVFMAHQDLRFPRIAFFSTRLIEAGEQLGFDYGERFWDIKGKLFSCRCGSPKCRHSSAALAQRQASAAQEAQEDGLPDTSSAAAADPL


Key:
[1] = test system: 3×MBT domain of L3MBTL1; test: Triple SILAC pull-down, 3xMBT/3xMBTD355N ratio (cytoplasmic, nuclear and chromatin fractions of 293T cells); assay type: binding, human; settings: SILAC ratio, pull-down 3xMBT vs 3xMBTD355N; for 3xMBT/D355N UNC Heavy: experiment with UNC0638 in heavy SILAC media; for 3xMBT/D355N UNC Light: experiment with UNC0638 in light SILAC media;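 for all read-outs here: proteins quantified with MaxQuant, requiring at least two unique peptides and quantification in both label directions, normalized to the mean of proteins from a digested loading control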
[2] = molecular target: T1, G9a and GLP; test: Triple SILAC pull-down after UNC0638 treatment of 293T cells, DMSO/UNC0638 ratio of protein captured by 3×MBT; assay type: cell-based; set-up: endogenous in cells; host or cells: HEK 293T; settings: for Relative to UNC0638 UNC Heavy / Relative to UNC0638 UNC Light: SILAC ratio DMSO/UNC0638 of protein pulled down with 3xMBT; for Relative to UNC0638 UNC Heavy: UNC0638 in heavy SILAC media; for Relative to UNC0638 UNC Light: UNC0638 in light SILAC media; for Relative to UNC0638 Average: average of UNC Light and UNC Heavy experiments;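 for all read-outs here: mass spectrometry (Q-Exactive) SILAC quantitation, DMSO/UNC0638 ratio computed after subtracting 3×MBTD355N mutant pull-down background, only proteins with at least twofold 3×MBT over mutant signal considered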

| Molecule | 3xMBT/D355N UNC Heavy [1] [log base 2] | 3xMBT/D355N UNC Light [1] [log base 2] | Relative to UNC0638 UNC Heavy [2] [log base 2] | Relative to UNC0638 UNC Light [2] [log base 2] | Relative to UNC0638 Average [2] [log base 2] |
| --- | --- | --- | --- | --- | --- |
| FTSJD2 (protein, UniProt Q8IYT2 1-770, looked up) Cap-specific mRNA …: MSKCRKTPVQQLASPASFSPDILADIFELFAKNFSYGKPLNNEWQLPDPSEIFTCDHTELNAFLDLKNSLNEVKNLLSDKKLDEWHEHTAFTNKAGKIISHVRKSVNAELCTQAWCKFHEILCSFPLIPQEAFQNGKLNSLHLCEAPGAFIASLNHYLKSHRFPCHWSWVANTLNPYHEANDDLMMIMDDRLIANTLHWWYFGPDNTGDIMTLKFLTGLQNFISSMATVHLVTADGSFDCQGNPGEQEALVSSLHYCEVVTALTTLGNGGSFVLKMFTMFEHCSINLMYLLNCCFDQVHVFKPATSKAGNSEVYVVCLHYKGREAIHPLLSKMTLNFGTEMKRKALFPHHVIPDSFLKRHEECCVFFHKYQLETISENIRLFECMGKAEQEKLNNLRDCAIQYFMQKFQLKHLSRNNWLVKKSSIGCSTNTKWFGQRNKYFKTYNERKMLEALSWKDKVAKGYFNSWAEEHGVYHPGQSSILEGTASNLECHLWHILEGKKLPKVKCSPFCNGEILKTLNEAIEKSLGGAFNLDSKFRPKQQYSCSCHVFSEELIFSELCSLTECLQDEQVVVPSNQIKCLLVGFSTLRNIKMHIPLEVRLLESAELTTFSCSLLHDGDPTYQRLFLDCLLHSLRELHTGDVMILPVLSCFTRFMAGLIFVLHSCFRFITFVCPTSSDPLRTCAVLLCVGYQDLPNPVFRYLQSVNELLSTLLNSDSPQQVLQFVPMEVLLKGALLDFLWDLNAAIAKRHLHFIIQREREEIINSLQLQN | 2.92 | 3.09 | 0.09 | 0.17 | 0.13 |
| HNRNPF (protein, UniProt P52597 1-415, looked up) Heterogeneous nuclear …: MMLGPEGGEGFVVKLRGLPWSCSVEDVQNFLSDCTIHDGAAGVHFIYTREGRQSGEAFVELGSEDDVKMALKKDRESMGHRYIEVFKSHRTEMDWVLKHSGPNSADSANDGFVRLRGLPFGCTKEEIVQFFSGLEIVPNGITLPVDPEGKITGEAFVQFASQELAEKALGKHKERIGHRYIEVFKSSQEEVRSYSDPPLKFMSVQRPGPYDRPGTARRYIGIVKQAGLERMRPGAYSTGYGGYEEYSGLSDGYGFTTDLFGRDLSYCLSGMYDHRYGDSEFTVQSTTGHCVHMRGLPYKATENDIYNFFSPLNPVRVHIEIGPDGRVTGEADVEFATHEEAVAAMSKDRANMQHRYIELFLNSTTGASNGAYSSQVMQGMGVSAAQATYSGLESQSVSGCYGAGYSGQNSMGGYD | 1.66 | 2.25 | 0.28 | −0.02 | 0.13 |
| UBA1 (protein, UniProt P22314 2-1058, looked up) Ubiquitin-like …: SSSPLSKKRRVSGPDPKPGSNCSPAQSVLSEVPSVPTNGMAKNGSEADIDEGLYSRQLYVLGHEAMKRLQTSSVLVSGLRGLGVEIAKNIILGGVKAVTLHDQGTAQWADLSSQFYLREEDIGKNRAEVSQPRLAELNSYVPVTAYTGPLVEDFLSGFQVVVLTNTPLEDQLRVGEFCHNRGIKLVVADTRGLFGQLFCDFGEEMILTDSNGEQPLSAMVSMVTKDNPGVVTCLDEARHGFESGDFVSFSEVQGMVELNGNQPMEIKVLGPYTFSICDTSNFSDYIRGGIVSQVKVPKKISFKSLVASLAEPDFVVTDFAKFSRPAQLHIGFQALHQFCAQHGRPPRPRNEEDAAELVALAQAVNARALPAVQQNNLDEDLIRKLAYVAAGDLAPINAFIGGLAAQEVMKACSGKFMPIMQWLYFDALECLPEDKEVLTEDKCLQRQNRYDGQVAVFGSDLQEKLGKQKYFLVGAGAIGCELLKNFAMIGLGCGEGGEIIVTDMDTIEKSNLNRQFLFRPWDVTKLKSDTAAAAVRQMNPHIRVTSHQNRVGPDTERIYDDDFFQNLDGVANALDNVDARMYMDRRCVYYRKPLLESGTLGTKGNVQVVIPFLTESYSSSQDPPEKSIPICTLKNFPNAIEHTLQWARDEFEGLFKQPAENVNQYLTDPKFVERTLRLAGTQPLEVLEAVQRSLVLQRPQTWADCVTWACHHWHTQYSNNIRQLLHNFPPDQLTSSGAPFWSGPKRCPHPLTFDVNNPLHLDYVMAAANLFAQTYGLTGSQDRAAVATFLQSVQVPEFTPKSGVKIHVSDQELQSANASVDDSRLEELKATLPSPDKLPGFKMYPIDFEKDDDSNFHMDFIVAASNLRAENYDIPSADRHKSKLIAGKIIPAIATTTAAVVGLVCLELYKVVQGHRQLDSYKNGFLNLALPFFGFSEPLAAPRHQYYNQEWTLWDRFEVQGLQPNGEEMTLKQFLDYFKTEHKLEITMLSQGVSMLYSFFMPAAKLKERLDQPMTEIVSRVSKRKLGRHVRALVLELCCNDESGEDVEVPYVRYTIR | 0.55 | 2.51 |  | 0.13 | 0.13 |
| EWSR1 (protein, UniProt Q01844 1-656, looked up) RNA-binding protein EWS: MASTDYSTYSQAAAQQGYSAYTAQPTQGYAQTTQAYGQQSYGTYGQPTDVSYTQAQTTATYGQTAYATSYGQPPTGYTTPTAPQAYSQPVQGYGTGAYDTTTATVTTTQASYAAQSAYGTQPAYPAYGQQPAATAPTRPQDGNKPTETSQPQSSTGGYNQPSLGYGQSNYSYPQVPGSYPMQPVTAPPSYPPTSYSSTQPTSYDQSSYSQQNTYGQPSSYGQQSSYGQQSSYGQQPPTSYPPQTGSYSQAPSQYSQQSSSYGQQSSFRQDHPSSMGVYGQESGGFSGPGENRSMSGPDNRGRGRGGFDRGGMSRGGRGGGRGGMGSAGERGGFNKPGGPMDEGPDLDLGPPVDPDEDSDNSAIYVQGLNDSVTLDDLADFFKQCGVVKMNKRTGQPMIHIYLDKETGKPKGDATVSYEDPPTAKAAVEWFDGKDFQGSKLKVSLARKKPPMNSMRGGLPPREGRGMPPPLRGGPGGPGGPGGPMGRMGGRGGDRGGFPPRGPRGSRGNPSGGGNVQHRAGDWQCPNPGCGNQNFAWRTECNQCKAPKPEGFLPPPFPPPGGDRGRGGPGGMRGGRGGLMDRGGPGGMFRGGRGGDRGGFRGGRGMDRGGFGGGRRGGPGGPPGPLMEQMGGRRGGRGGPGKMDKGEHRQERRDRPY | 2.09 | 2.82 | −0.11 | 0.38 | 0.14 |
